We go through eight molecules from patent publication EP4786493A1 (Nanjing Probio Biotech Co., Ltd., dated 2026).

Assay [1] addresses T1, human Claudin 18.2 expressed on cells (HEK293/human Claudin 18.2; CHO-K1/human Claudin 18.2) (human, UniProt P56856-2 1-261). The assay is described as follows: cell-based or functional assay.
For assay [2], the target named is T2, recombinant human Claudin 18.2 protein (GenScript, Z03504) (human, UniProt P56856-2 1-261, limits assumed).
T2 construct: Bought recombinant protein
The assay is described as follows: SPR Biacore 8K, antibody captured via Fc, human Claudin 18.2 protein as analyte. (Surface plasmon resonance follows binding to a sensor surface in real time, without labels.)

Assay [3] has as its target T2, recombinant human Claudin 18.2 protein …. The assay is described as follows: competition ELISA on coated recombinant human Claudin 18.2; competitor biotinylated IMAB362 (0.72 µg/ml). In general terms: ELISA stands for enzyme-linked immunosorbent assay.
Assay [4] deals with T1, human Claudin 18.2 expressed on cells …. The assay is described as follows: flow cytometry on HEK293 cells expressing human Claudin 18.2. On the technique in general: Flow cytometry measures light scatter and fluorescence of single cells or particles in a stream.
For assay [5], the target named is T2, recombinant human Claudin 18.2 protein …. The assay is described as follows: indirect ELISA, plate coated with recombinant human Claudin 18.2, anti-human IgG Fc-HRP detection.
Assay [6] deals with T1, human Claudin 18.2 expressed on cells …. The assay is described as follows: cell-based or functional assay. The source holds these as a separate data set.

B1: AHP30826 (antibody, V domains shown)
VH: QVQLQQSGGGSVQAGGSLRLSCAASGTILSINAMGWYRQAPGKQRELVATITTGGNANYAHSVKGRFTISRDNAKNTVYLQMNNLKPEDTAVYYCNAEQVVVGFLQAYDVWGQGTTVTVSS
VL: DVVMTQSPLSLPVTLGQAASISCRSSQSLVHGDGNTYLNWIQQRPGQSPRRLIYKVSNRDSGVPDRFSGSGSGTDFTLKISRVEAEDVGVYYCMQGTHWPSTFGPGTKVDIK
With B1, in assay [1], the “ADCC reporter gene assay (CHO-K1/Claudin 18.2 target cells, GS-J2C/CD16A 158V effector cells): EC50” value (from here on “ADCC reporter gene assay … EC50”) amounted to 0.684 nM and the “ADCC reporter gene assay (CHO-K1/Claudin 18.2 target cells, GS-J2C/CD16A 158V effector cells): Top” value (shortened to “ADCC reporter gene assay … Top”) worked out at 222000. Also, the Kd (commonly the free concentration of one partner at which half of the binding sites on the other are occupied at equilibrium, for simple one-to-one binding) in assay [2] was 7.82 nM. For the same molecule, the IC50 (usually the point on the concentration scale where inhibition reaches its midpoint) in assay [3] was 0.276 nM. Also, in assay [4], a half-maximal response (EC50) required 3.54 nM. The EC50 (in general, the midpoint of the concentration-response curve) in assay [5] was 0.0914 nM. In addition, the “CDC on CHO-K1/human Claudin 18.2 cells: Top” value (shortened to “CDC”) in assay [6] turned out to be 96%.

B2: AHP29153 (antibody, V domains shown)
VH: QLQQVESGGGLVQPGGSLRLSCAASRNIGILSTMGWYRQAPGKQRELVATITRGGSTNYGEFVKGRFTISRDNAKNTVYLQMNSLKPEDTAVYYCNVDESWLGTQSYWGRGTTVTVSS
VL: QSVLTQPASVSGSPGQSITISCTGTSSDVGGYKYVSWYQQPPGKAPKLIIYEVTKRPSGVPDRFSGSKSGNTASLTVSGLQAEDEADYYCLSYAGSNNVFGTGTKLTVL
B2: in assay [1], the “ADCC reporter gene assay … EC50” value turned out to be 0.805 nM and the “ADCC reporter gene assay … Top” value came out at 283000. Also, in assay [2], the Kd is 9.96 nM. Besides, the IC50 in assay [3] was found to be 0.323 nM. This molecule displayed an EC50 in assay [4] of 8.15 nM. In assay [5], the EC50 was determined as 0.125 nM. Besides, in assay [6], the “CDC” value amounted to 96.3%.

B3: AHP32982 (antibody, V domains shown)
VH: QVQLVQSGGGLVQPGGSLRLSCAASRNIGILSTMGWYRQAPGKQRELVATITRGGSTNYGEFVKGRFTISRDNAKNTVYLQMNSLKPEDTAVYYCNVDESWLGTQSYWGRGPLVTVSS
VL: DIVMTQSPSSVSASVGDRVTITCRASQGISSWLAWYQQKPGKAPKLLIYAASSLQSGVPSRFSGSGSGTDFTLTISSLQPEDFATYYCQQANSFPLTFGGGTKVEIK
Turning to B3, in assay [1], the “ADCC reporter gene assay … EC50” value stood at 0.379 nM and the “ADCC reporter gene assay … Top” value was determined as 216000. In assay [2], the Kd was determined as 13.3 nM. Moreover, in assay [3], the 50% inhibitory concentration (IC50) was 0.491 nM. This molecule registered an EC50 in assay [4] of 5.91 nM. Further, in assay [5], the EC50 was found to be 0.119 nM. The “CDC” value in assay [6] worked out at 95.5%.

B4: AHP32913 (antibody, V domains shown)
VH: QVQLMQSGGGLVQPGGSLRLSCAASRNIGILSTMGWYRQAPGKQRELVATITRGGSTNYGEFVKGRFTISRDNAKNTVYLQMNSLKPEDTAVYYCNVDESWLGTQSYWGRGTQVTVSS
VL: QAVVTQEPSLTVSPGGTVTLTCGSSTGPVTSGHYPHWYQQKPGQAPKTLIFDTSHKHPWTPAQFSGSLLGGKAALTLSGAHPEDEAEYYCLLSYSGVRVFGGGTQLIIL
For B4, the “ADCC reporter gene assay … EC50” value in assay [1] came to 8.12 nM. The “ADCC reporter gene assay … Top” value in assay [1] came out at 486000. Further, the Kd in assay [2] amounted to 9.44 nM. Also, the IC50 in assay [3] was 0.337 nM. Also, the results for the EC50 in assay [4] and in assay [5] were 4.16 nM and 0.111 nM, respectively. Also, the “CDC” value in assay [6] stood at 93%.

B5: AHP33007 (antibody, V domains shown)
VH: QVQLVQSGGGLVQPGGSLRLSCAASRNIGILSTMGWYRQAPGKQRELVATITRGGSTNYGEFVKGRFTISRDNAKNTVYLQMNSLKPEDTAVYYCNVDESWLGTQSYWGRGPLVTVSS
VL: not shown
In the case of B5, in assay [1], the “ADCC reporter gene assay … EC50” value amounted to 1.84 nM and the “ADCC reporter gene assay … Top” value turned out to be 295000. Besides, the Kd in assay [2] was determined as 2.7 nM. Besides, the IC50 in assay [3] was found to be 0.805 nM. Moreover, the EC50 in assay [4] turned out to be 12.4 nM. The EC50 in assay [5] worked out at 0.139 nM. In addition, the “CDC” value in assay [6] was determined as 92.7%.

B6: AHP31548 (antibody, V domains shown)
VH: QVQLMQSGGGLVQPGGSLRLSCAASRNIGILSTMGWYRQAPGKQRELVATITRGGSTNYGEFVKGRFTISRDNAKNTVYLQMNSLKPEDTAVYYCNVDESWLGTQSYWGRGTTVTVSS
VL: QSALTQPPSASGSPGQSVTISCTGTSSDIGTYNFVSWYQQHPGKAPKLIIYEVSKRPSGVPDRFSGSKSGNTASLTVSGLQAEDEADYYCKSYPRVFGTGTKLTAL
B6: in assay [1], the “ADCC reporter gene assay … EC50” value is 2.15 nM and the “ADCC reporter gene assay … Top” value stood at 463000. Besides, in assay [2], the Kd was determined as 7.31 nM. Moreover, the IC50 in assay [3] is 0.265 nM. Besides, a half-maximal effect in assay [4] (EC50) was put at 3.08 nM. Also, in assay [5], the EC50 was 0.074 nM. The “CDC” value in assay [6] came out at 94%.

B7: AHP32919 (antibody, V domains shown)
VH: QVQLQESGGGVVQPGGSLRLSCAASQSIGLLSTMGWYRQAAGKQRELVATITRGGSTNYGEFVKGRFTISRDNAKNTVYLQMNSLKPEDTAVYYCTADESWLGTQSYWGRGTRVTVSS
VL: QAGLTQPPSASGTPGQGVTISCSGSSSNIGSNSVNWYQQLPGTAPKLLMHSNNERSSGVPDRFSGSKSGSSASLAISGLQSEDAADYFCGAWDDSLNGYVFGTGTKLTVL
On to B7, for which the “ADCC reporter gene assay … EC50” value in assay [1] was around 0.439 nM. Besides, in assay [1], the “ADCC reporter gene assay … Top” value was determined as 199000. Also, the Kd in assay [2] is 7.91 nM. Besides, the IC50 in assay [3] came out at 0.271 nM. Further, the EC50 turned out to be 6.04 nM in assay [4] and 0.0788 nM in assay [5]. Besides, the “CDC” value in assay [6] amounted to 96.3%.

B8: AHP33029 (antibody, V domains shown)
VH: QVQLVDSGGGLVQSGGSLRLTCAASQSIGLLSTMGWYRQAAGKQRELVATITRGGSTNYGEFVKGRFTISRDNAKNTVYLQMNSLKPEDTAVYYCTADESWLGTQSYWGRGTLVTVSS
VL: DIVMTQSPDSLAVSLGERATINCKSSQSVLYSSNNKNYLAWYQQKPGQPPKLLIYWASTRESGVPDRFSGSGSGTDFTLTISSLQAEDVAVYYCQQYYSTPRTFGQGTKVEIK
Turning to B8, in assay [1], the “ADCC reporter gene assay … EC50” value stood at 3.73 nM and the “ADCC reporter gene assay … Top” value was determined as 358000. For the same molecule, the Kd in assay [2] came to 10.2 nM. For the same molecule, the IC50 in assay [3] turned out to be 0.319 nM. In assay [4], this molecule had an EC50 of 4.24 nM. Besides, the EC50 in assay [5] was found to be 0.0746 nM. For the same molecule, the “CDC” value in assay [6] came to 96.9%.
